T1: Human CD73 on cells (MDA-MB-231, Jurkat CD73 knock-in, NCI-H322) (human, UniProt P21589 27-549)
T1 construct: GPI-anchored native protein; also called native human CD73
T1 sequence: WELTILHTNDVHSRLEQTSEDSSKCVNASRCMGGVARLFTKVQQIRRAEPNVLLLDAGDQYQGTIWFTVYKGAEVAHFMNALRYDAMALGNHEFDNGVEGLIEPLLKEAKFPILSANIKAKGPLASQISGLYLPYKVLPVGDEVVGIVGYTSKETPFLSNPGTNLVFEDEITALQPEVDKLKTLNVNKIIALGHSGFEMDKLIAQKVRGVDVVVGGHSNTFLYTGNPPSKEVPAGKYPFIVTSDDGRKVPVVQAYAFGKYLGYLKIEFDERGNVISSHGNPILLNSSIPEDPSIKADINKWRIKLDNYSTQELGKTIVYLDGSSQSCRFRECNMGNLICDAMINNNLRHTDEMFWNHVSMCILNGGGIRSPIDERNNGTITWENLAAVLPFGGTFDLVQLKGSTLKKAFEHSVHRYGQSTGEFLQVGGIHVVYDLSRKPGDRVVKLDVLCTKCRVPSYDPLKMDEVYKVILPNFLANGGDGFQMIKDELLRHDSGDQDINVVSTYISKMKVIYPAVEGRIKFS

T2: Human CD73 ECD (human, UniProt P21589 27-549)
T2 construct: Biotinylated in some assays; also called human CD73 extracellular domain; huCD73
T2 sequence: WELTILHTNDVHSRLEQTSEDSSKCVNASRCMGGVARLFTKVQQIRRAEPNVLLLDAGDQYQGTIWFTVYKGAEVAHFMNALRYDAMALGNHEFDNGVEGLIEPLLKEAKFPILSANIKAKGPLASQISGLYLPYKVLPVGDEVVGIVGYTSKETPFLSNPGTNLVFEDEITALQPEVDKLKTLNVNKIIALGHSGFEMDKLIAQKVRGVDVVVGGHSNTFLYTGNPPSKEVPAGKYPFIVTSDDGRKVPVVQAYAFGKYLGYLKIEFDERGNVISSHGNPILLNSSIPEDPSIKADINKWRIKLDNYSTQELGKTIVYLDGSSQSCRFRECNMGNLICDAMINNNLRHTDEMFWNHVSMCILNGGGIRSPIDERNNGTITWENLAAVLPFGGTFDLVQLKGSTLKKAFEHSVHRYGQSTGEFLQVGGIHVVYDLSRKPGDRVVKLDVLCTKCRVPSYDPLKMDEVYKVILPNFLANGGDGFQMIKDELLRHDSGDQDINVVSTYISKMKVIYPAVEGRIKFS

T3: Murine CD73 on cells (4T1, Jurkat mCD73 knock-in) (murine, UniProt Q61503 29-551)
T3 construct: whole, on cells; also called 4T1 (murine)
T3 sequence (looked up): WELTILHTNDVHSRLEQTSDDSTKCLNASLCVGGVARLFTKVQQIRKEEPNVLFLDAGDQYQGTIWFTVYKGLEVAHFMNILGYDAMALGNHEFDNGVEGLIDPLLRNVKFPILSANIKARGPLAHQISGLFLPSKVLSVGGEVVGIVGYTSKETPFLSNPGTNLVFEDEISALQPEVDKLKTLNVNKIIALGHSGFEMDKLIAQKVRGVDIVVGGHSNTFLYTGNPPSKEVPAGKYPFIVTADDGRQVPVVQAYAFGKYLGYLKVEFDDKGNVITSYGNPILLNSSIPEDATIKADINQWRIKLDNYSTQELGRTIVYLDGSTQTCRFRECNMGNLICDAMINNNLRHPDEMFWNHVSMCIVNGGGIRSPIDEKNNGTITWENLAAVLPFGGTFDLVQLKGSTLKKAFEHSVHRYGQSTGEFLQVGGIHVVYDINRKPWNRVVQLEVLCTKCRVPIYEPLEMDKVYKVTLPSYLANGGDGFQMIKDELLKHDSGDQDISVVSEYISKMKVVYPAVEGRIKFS

T4: Cynomolgus CD73 on MK-1 cells (cynomolgus, UniProt A0A2K5V5U7 27-549)
T4 construct: whole, on cells; also called MK-1 (cyno)
T4 sequence: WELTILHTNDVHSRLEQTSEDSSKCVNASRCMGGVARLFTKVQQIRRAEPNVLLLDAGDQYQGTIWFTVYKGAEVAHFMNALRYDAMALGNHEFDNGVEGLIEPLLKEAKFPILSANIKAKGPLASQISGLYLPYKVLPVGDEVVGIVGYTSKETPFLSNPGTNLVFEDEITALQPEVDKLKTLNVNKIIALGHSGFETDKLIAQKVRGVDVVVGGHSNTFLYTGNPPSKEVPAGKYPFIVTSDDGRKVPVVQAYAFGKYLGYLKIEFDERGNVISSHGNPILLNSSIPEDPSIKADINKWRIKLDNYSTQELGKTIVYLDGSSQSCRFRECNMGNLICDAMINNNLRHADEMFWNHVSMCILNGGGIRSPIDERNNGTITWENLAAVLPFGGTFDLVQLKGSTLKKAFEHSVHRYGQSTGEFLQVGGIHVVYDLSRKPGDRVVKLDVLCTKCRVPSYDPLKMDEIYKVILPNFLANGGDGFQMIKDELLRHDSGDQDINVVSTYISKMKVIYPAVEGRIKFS


Legend:
[1] = target: T1, Human CD73 on cells (MDA-MB-231, Jurkat …); experiment: FACS on MDA-MB-231 cells, vs CD730002SGMY
[2] = target: T2, Human CD73 ECD; experiment: SPR (Proteon)
[3] = target: T1, Human CD73 on cells (MDA-MB-231, Jurkat …); experiment: flow cytometry on cells
[4] = target: T3, Murine CD73 on cells (4T1, Jurkat mCD73 …); experiment: flow cytometry on cells
[5] = target: T4, Cynomolgus CD73 on MK-1 cells; experiment: flow cytometry on cells

| Binder | FACS signal, fold improvement over parental antibody [1] [fold] | Kd [2] [nM] | Kd [3] [nM] | Kd [4] [nM] | Kd [5] [nM] |
| --- | --- | --- | --- | --- | --- |
| CD730002SGMY CDRH1 Y32V (Fab, V domains shown, format in the FACS read-out not clearly stated) VH: EVQLLESGGGLVQPGGSLRLSCAASGFTFSSVAMSWVRQAPGKGLEWVSAISGSGGSTYYADSVKGRFTISRDNSKNTLYLQMNSLRAEDTAVYYCARDKGYYWYMDVWGQGTMVTVSS VL: QSVLTQPPSVSVSPGQTASITCSGDKVGDKYASWYQQKPGQSPVLVIYEDTKRPSGIPERFSGSNSGNTATLTISGTQAMDEADYYCQAWDTSFWVFGGGTKLTVL | 1.2 |  |  |  |  |
| CD730002SGMY CDRH2 T57P (Fab, V domains shown, format in the FACS read-out not clearly stated) VH: EVQLLESGGGLVQPGGSLRLSCAASGFTFSSYAMSWVRQAPGKGLEWVSAISGSGGSPYYADSVKGRFTISRDNSKNTLYLQMNSLRAEDTAVYYCARDKGYYWYMDVWGQGTMVTVSS VL: QSVLTQPPSVSVSPGQTASITCSGDKVGDKYASWYQQKPGQSPVLVIYEDTKRPSGIPERFSGSNSGNTATLTISGTQAMDEADYYCQAWDTSFWVFGGGTKLTVL | 1.5 |  |  |  |  |
| CD730002SGMY CDRH1 M34R (Fab, V domains shown, format in the FACS read-out not clearly stated) VH: EVQLLESGGGLVQPGGSLRLSCAASGFTFSSYARSWVRQAPGKGLEWVSAISGSGGSTYYADSVKGRFTISRDNSKNTLYLQMNSLRAEDTAVYYCARDKGYYWYMDVWGQGTMVTVSS VL: QSVLTQPPSVSVSPGQTASITCSGDKVGDKYASWYQQKPGQSPVLVIYEDTKRPSGIPERFSGSNSGNTATLTISGTQAMDEADYYCQAWDTSFWVFGGGTKLTVL | 1.1 |  |  |  |  |
| CD730002SGMY CDRL2 P55H (Fab, V domains shown, format not clearly stated) VH: not shown VL: QSVLTQPPSVSVSPGQTASITCSGDKVGDKYASWYQQKPGQSPVLVIYEDTKRHSGIPERFSGSNSGNTATLTISGTQAMDEADYYCQAWDTSFWVFGGGTKLTVL | 1.5 |  |  |  |  |
| C2 (IgG1-TM) (antibody, V domains shown, IgG1-TM format; also called clone 10 C2) VH: EVQLLESGGGLVQPGGSLRLSCAASGFTFSSYAYSWVRQAPGKGLEWVSLIWGSWGSTYYADSVKGRFTISRDNSKNTLYLQMNSLRAEDTAVYYCARLGYSTIDMWGRGTLVTVSS VL: QSVLTQPPSASGTPGQRVTISCSGSLSNIGRNPVNWYQQLPGTAPKLLIYLDNLRLGGVPDRFSGSKSGTSASLAISGLQSEDEADYYCATWDDSLKGWLFGGGTKLTVL |  | 0.023 | 0.158 | 0.067 | 0.105 |
| G10 (IgG1-TM) (antibody, V domains shown, IgG1-TM format; also called clone 10 G10) VH: EVQLLESGGGLVQPGGSLRLSCAASGFTFSSYAYSWVRQAPGKGLEWVSAISGSWGRTYYADSVKGRFTISRDNSKNTLYLQMNSLRAEDTAVYYCARLGYSTIDLWGRGTLVTVSS VL: QSVLTQPPSASGTPGQRVTISCSGSLSNIGRNDVNWYQQLPGTAPKLLIYLNNQRLGGVPDRFSGSKSGTSASLAISGLQSEDEADYYCATWDDSLKGWLFGGGTKLTVL |  | 0.009 | 0.354 | 0.259 | 0.258 |
| 73combo5 (G10+GRVE+HPT) (antibody, V domains shown, IgG1-TM format; also called clone 10 combo5) VH: EVQLLESGGGLVQPGGSLRLSCAASGFTFSSYAYSWVRQAPGKGLEWVSAISGSWGRTYYADSVKGRFTISRDNSKNTLYLQMNSLRAEDTAVYYCARLGYGRVDEWGRGTLVTVSS VL: QSVLTQPPSASGTPGQRVTISCSGSLSNIGRNDVNWYQQLPGTAPKLLIYLNNQRLGGVPDRFSGSKSGTSASLAISGLQSEDEADYYCATWDDSHPGWTFGGGTKLTVL |  | 0.007 | 0.169 | 0.205 | 0.078 |
| 73combo2 (C2+GRVE+HPT) (antibody, V domains shown, IgG1-TM format; also called clone 10 combo2) VH: EVQLLESGGGLVQPGGSLRLSCAASGFTFSSYAYSWVRQAPGKGLEWVSLIWGSWGSTYYADSVKGRFTISRDNSKNTLYLQMNSLRAEDTAVYYCARLGYGRVDEWGRGTLVTVSS VL: QSVLTQPPSASGTPGQRVTISCSGSLSNIGRNPVNWYQQLPGTAPKLLIYLDNLRLGGVPDRFSGSKSGTSASLAISGLQSEDEADYYCATWDDSHPGWTFGGGTKLTVL |  | 0.005 | 0.166 | 0.064 | 0.074 |

From patent publication US20230340152A1 (published 2023)
